Measured values: PMC9482650, “Quantitative fragmentomics allow affinity mapping of interactomes” (Nature Communications, 2022)

Tests used:
Assay in all cases: holdup assay
Parameters in all cases: key: below the threshold = too weak to quantify, mostly under pKd 3.1 to 4
IL16_4, Q14005 = target: IL16_4, Q14005
MAGI2_2, Q86UL8 = target: MAGI2_2, Q86UL8
DLG5_1, Q8TDM6 = target: DLG5_1, Q8TDM6
NOS1, P29475 = target: NOS1, P29475
GRIP1_4, Q9Y3R0 = target: T1, GRIP1_4, Q9Y3R0
T1 sequence (Q9Y3R0 467-571, limits assumed, looked up): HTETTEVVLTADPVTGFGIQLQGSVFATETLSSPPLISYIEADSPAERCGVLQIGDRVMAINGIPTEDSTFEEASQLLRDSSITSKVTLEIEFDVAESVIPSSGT

APBA3_1, O96018 = target: T2, APBA3_1, O96018
T2 sequence (O96018 389-490, limits assumed, looked up): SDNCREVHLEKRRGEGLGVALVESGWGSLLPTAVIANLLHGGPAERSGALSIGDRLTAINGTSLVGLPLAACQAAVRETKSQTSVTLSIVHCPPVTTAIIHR

TJP1_3, Q07157 = target: TJP1_3, Q07157
Sequence of TJP1_3, Q07157 (Q07157 416-512): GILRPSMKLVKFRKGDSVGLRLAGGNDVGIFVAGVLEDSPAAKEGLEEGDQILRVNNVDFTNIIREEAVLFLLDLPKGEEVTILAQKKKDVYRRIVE

RADIL, Q96JH8 = target: T3, RADIL, Q96JH8
T3 sequence (Q96JH8 971-1071, limits assumed, looked up): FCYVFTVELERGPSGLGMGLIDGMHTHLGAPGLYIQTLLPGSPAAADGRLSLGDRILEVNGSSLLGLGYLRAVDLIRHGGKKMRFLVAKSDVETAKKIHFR

FRMPD3, Q5JV73 = target: FRMPD3, Q5JV73
Sequence of FRMPD3, Q5JV73 (Q5JV73 12-100): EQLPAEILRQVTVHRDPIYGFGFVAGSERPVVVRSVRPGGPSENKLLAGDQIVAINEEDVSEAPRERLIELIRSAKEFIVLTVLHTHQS

HTRA3, P83110 = target: T4, HTRA3, P83110
T4 sequence (P83110 354-453, limits assumed, looked up): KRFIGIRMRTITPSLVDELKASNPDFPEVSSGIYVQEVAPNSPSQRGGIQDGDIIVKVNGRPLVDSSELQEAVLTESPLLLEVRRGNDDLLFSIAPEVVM

DLG3_2, Q92796 = target: T5, DLG3_2, Q92796
T5 sequence (Q92796 221-321, limits assumed, looked up): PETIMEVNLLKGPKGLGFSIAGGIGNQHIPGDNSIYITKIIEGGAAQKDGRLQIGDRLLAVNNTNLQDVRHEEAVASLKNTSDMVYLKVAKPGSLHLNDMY

DFNB31_1, Q9P202 = target: T6, DFNB31_1, Q9P202
T6 sequence (Q9P202 135-233, limits assumed, looked up): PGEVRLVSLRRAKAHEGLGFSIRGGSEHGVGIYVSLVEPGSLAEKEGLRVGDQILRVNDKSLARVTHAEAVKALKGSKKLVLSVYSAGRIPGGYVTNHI

LNX1_2, Q8TBB1 = target: LNX1_2, Q8TBB1
Sequence of LNX1_2, Q8TBB1 (Q8TBB1 371-470): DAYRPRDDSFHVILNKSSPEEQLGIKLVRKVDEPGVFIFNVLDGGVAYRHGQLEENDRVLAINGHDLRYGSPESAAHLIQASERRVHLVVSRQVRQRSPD

PICK1, Q9NRD5 = target: PICK1, Q9NRD5
Sequence of PICK1, Q9NRD5 (Q9NRD5 17-115): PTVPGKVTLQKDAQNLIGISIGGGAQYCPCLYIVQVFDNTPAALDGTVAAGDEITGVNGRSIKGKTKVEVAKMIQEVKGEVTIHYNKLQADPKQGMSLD

TIAM2, Q8IVF5 = target: T7, TIAM2, Q8IVF5
T7 sequence (Q8IVF5 885-986, limits assumed, looked up): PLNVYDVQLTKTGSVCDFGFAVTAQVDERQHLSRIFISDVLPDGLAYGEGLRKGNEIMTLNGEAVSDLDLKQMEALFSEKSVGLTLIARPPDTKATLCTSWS

IL16_3, Q14005 = target: IL16_3, Q14005
Sequence of IL16_3, Q14005 (Q14005 1107-1207): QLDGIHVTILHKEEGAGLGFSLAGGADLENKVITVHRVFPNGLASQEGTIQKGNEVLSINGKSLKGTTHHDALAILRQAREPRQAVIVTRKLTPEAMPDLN

DFNB31_3, Q9P202 = target: T8, DFNB31_3, Q9P202
T8 sequence (Q9P202 811-907, limits assumed, looked up): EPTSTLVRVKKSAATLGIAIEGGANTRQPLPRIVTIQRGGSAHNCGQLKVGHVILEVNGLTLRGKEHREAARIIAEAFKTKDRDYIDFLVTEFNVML

MPP2, Q14168 = target: T9, MPP2, Q14168
T9 sequence (Q14168 180-250, limits assumed, looked up): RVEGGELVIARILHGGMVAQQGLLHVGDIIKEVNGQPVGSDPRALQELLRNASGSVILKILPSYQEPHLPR

PDZRN3_1, Q9UPQ7 = target: T10, PDZRN3_1, Q9UPQ7
T10 sequence (Q9UPQ7 244-349, limits assumed, looked up): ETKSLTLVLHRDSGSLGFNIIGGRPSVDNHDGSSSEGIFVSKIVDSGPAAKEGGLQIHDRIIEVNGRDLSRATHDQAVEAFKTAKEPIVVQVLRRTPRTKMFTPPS

GRID2IP_2, A4D2P6 = target: GRID2IP_2, A4D2P6
Sequence of GRID2IP_2, A4D2P6 (A4D2P6 272-370): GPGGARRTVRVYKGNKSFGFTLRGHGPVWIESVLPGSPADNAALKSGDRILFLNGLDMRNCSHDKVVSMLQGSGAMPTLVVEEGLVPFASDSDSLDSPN

GORASP2, Q9H8Y8 = target: GORASP2, Q9H8Y8
MPDZ_12, O75970 = target: T11, MPDZ_12, O75970
T11 sequence (O75970 1857-1958, limits assumed, looked up): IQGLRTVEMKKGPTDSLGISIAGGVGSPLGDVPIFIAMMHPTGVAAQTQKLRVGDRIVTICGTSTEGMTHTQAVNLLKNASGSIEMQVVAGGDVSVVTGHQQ

GRIP2_6, Q9C0E4 = target: GRIP2_6, Q9C0E4
Sequence of GRIP2_6, Q9C0E4 (Q9C0E4 648-740): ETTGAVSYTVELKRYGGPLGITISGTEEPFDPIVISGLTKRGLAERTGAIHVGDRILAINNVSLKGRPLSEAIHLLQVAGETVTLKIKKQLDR

GRASP, Q7Z6J2 = target: GRASP, Q7Z6J2
Sequence of GRASP, Q7Z6J2 (Q7Z6J2 96-193): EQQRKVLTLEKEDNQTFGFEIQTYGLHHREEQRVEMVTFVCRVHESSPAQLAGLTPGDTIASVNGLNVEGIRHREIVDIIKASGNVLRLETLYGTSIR

Inadl_9, Q8NI35 = target: Inadl_9, Q8NI35
Sequence of Inadl_9, Q8NI35 (Q8NI35 1530-1615): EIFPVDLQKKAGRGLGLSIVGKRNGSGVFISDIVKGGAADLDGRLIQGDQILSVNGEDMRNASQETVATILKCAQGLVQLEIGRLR

GRIP2_4, Q9C0E4 = target: GRIP2_4, Q9C0E4
Sequence of GRIP2_4, Q9C0E4 (Q9C0E4 446-548): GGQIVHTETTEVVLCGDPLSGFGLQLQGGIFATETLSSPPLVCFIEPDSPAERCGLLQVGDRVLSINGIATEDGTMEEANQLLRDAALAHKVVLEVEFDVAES

[1] = plain residues with an end cap or a label only (N-terminal biotin on a linker: ahx)
[2] = plain residues with an end cap or a label only (N-terminal biotin on a linker: ado-ado)
[3] = plain residues with an end cap or a label only (N-terminal biotin on a linker: ttds)

Measured: pKd

Sequence of NOS1, P29475 (P29475 9-101): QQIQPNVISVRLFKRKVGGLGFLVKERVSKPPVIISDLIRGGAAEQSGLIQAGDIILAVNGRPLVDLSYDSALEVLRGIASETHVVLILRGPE
Sequence of DLG5_1, Q8TDM6 (Q8TDM6 617-713): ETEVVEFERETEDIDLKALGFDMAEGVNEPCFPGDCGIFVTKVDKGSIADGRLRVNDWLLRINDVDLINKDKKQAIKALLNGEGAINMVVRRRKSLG
Sequence of IL16_4, Q14005 (Q14005 1229-1329): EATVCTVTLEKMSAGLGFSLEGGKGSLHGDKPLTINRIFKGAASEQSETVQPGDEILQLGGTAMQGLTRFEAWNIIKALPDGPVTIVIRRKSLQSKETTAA
Sequence of MAGI2_2, Q86UL8 (Q86UL8 410-522): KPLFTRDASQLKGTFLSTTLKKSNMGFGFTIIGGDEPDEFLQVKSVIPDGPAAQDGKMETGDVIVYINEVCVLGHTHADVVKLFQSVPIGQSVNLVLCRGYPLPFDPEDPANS

B1: LNX1, Q8TBB1 (peptide)
chain: TIVSWPGTFL
4.45: RADIL, Q96JH8; [1]
below the threshold: IL16_4, Q14005; [1] | MAGI2_2, Q86UL8; [1] | DLG5_1, Q8TDM6; [1] | NOS1, P29475; [1] | GRIP1_4, Q9Y3R0; [1] | APBA3_1, O96018; [1] | TJP1_3, Q07157; [1] | FRMPD3, Q5JV73; [1] | DLG3_2, Q92796; [1] | DFNB31_1, Q9P202; [1] | LNX1_2, Q8TBB1; [1] | PICK1, Q9NRD5; [1] | TIAM2, Q8IVF5; [1] | IL16_3, Q14005; [1] | DFNB31_3, Q9P202; [1] | MPP2, Q14168; [1] | GORASP2, Q9H8Y8; [1] | GRIP2_6, Q9C0E4; [1] | Inadl_9, Q8NI35; [1] | GRIP2_4, Q9C0E4; [1]
3.62: HTRA3, P83110; [1]
3.54: MPDZ_12, O75970; [1]
3.85: PDZRN3_1, Q9UPQ7; [1]
4.16: GRID2IP_2, A4D2P6; [1]
4.15: GRASP, Q7Z6J2; [1]

B2: ACOT6, Q3I5F7 (peptide)
chain: GKKSVKHSKI
3.83: GRID2IP_2, A4D2P6; [2]
4.33: DFNB31_1, Q9P202; [2]
3.85: DFNB31_3, Q9P202; [2]
below the threshold: IL16_4, Q14005; [2] | DLG5_1, Q8TDM6; [2] | NOS1, P29475; [2] | GRIP1_4, Q9Y3R0; [2] | APBA3_1, O96018; [2] | TJP1_3, Q07157; [2] | RADIL, Q96JH8; [2] | FRMPD3, Q5JV73; [2] | HTRA3, P83110; [2] | DLG3_2, Q92796; [2] | LNX1_2, Q8TBB1; [2] | TIAM2, Q8IVF5; [2] | IL16_3, Q14005; [2] | MPP2, Q14168; [2] | PDZRN3_1, Q9UPQ7; [2] | GORASP2, Q9H8Y8; [2] | MPDZ_12, O75970; [2] | GRIP2_6, Q9C0E4; [2] | GRASP, Q7Z6J2; [2] | Inadl_9, Q8NI35; [2] | GRIP2_4, Q9C0E4; [2]
3.96: MAGI2_2, Q86UL8; [2]
3.99: PICK1, Q9NRD5; [2]

B3: HPV31-E6, P17386 (peptide)
chain: SRRPRTETQV
4.09: PDZRN3_1, Q9UPQ7; [3]
5.41: DLG3_2, Q92796; [3]
3.55: DFNB31_1, Q9P202; [3]
3.65: GORASP2, Q9H8Y8; [3]
6.38: MAGI2_2, Q86UL8; [3]
3.91: NOS1, P29475; [3]
below the threshold: IL16_4, Q14005; [3] | DLG5_1, Q8TDM6; [3] | GRIP1_4, Q9Y3R0; [3] | APBA3_1, O96018; [3] | TJP1_3, Q07157; [3] | RADIL, Q96JH8; [3] | FRMPD3, Q5JV73; [3] | HTRA3, P83110; [3] | LNX1_2, Q8TBB1; [3] | PICK1, Q9NRD5; [3] | TIAM2, Q8IVF5; [3] | IL16_3, Q14005; [3] | DFNB31_3, Q9P202; [3] | MPP2, Q14168; [3] | GRID2IP_2, A4D2P6; [3] | MPDZ_12, O75970; [3] | GRIP2_6, Q9C0E4; [3] | GRASP, Q7Z6J2; [3] | Inadl_9, Q8NI35; [3] | GRIP2_4, Q9C0E4; [3]

B4: TAGAP, Q8N103 (peptide)
chain: QFQYAKESYI
3.69: RADIL, Q96JH8; [3]
3.82: NOS1, P29475; [3]
4.24: DFNB31_1, Q9P202; [3]
4.15: DLG3_2, Q92796; [3]
below the threshold: IL16_4, Q14005; [3] | DLG5_1, Q8TDM6; [3] | GRIP1_4, Q9Y3R0; [3] | APBA3_1, O96018; [3] | TJP1_3, Q07157; [3] | FRMPD3, Q5JV73; [3] | LNX1_2, Q8TBB1; [3] | PICK1, Q9NRD5; [3] | TIAM2, Q8IVF5; [3] | IL16_3, Q14005; [3] | DFNB31_3, Q9P202; [3] | MPP2, Q14168; [3] | MPDZ_12, O75970; [3] | GRIP2_6, Q9C0E4; [3] | GRASP, Q7Z6J2; [3] | GRIP2_4, Q9C0E4; [3]
3.5: MAGI2_2, Q86UL8; [3] | Inadl_9, Q8NI35; [3]
4.18: PDZRN3_1, Q9UPQ7; [3]
3.76: HTRA3, P83110; [3]
3.9: GORASP2, Q9H8Y8; [3]
3.72: GRID2IP_2, A4D2P6; [3]
